In PMC3519907 (PLoS Biology, 2012):

Target: the molecule itself
Experiment: crystal structure; ΔNC-Fab complex 10-20 mg/mL, 25%-35% PEG400, 100 mM Ca-acetate or 300 mM KCl, pH 8.5-9.5, 22°C; dataset refined to 2.5 Å

B1: ΔNC CLC-ec1 (domain or fragment, Escherichia coli, UniProt P37019 1-460, looked up)
chain: MRRRQLIRQLLERDKTPLAILFMAAVVGTLVGLAAVAFDKGVAWLQNQRMGALVHTADNYPLLLTVAFLCSAVLAMFGYFLVRKYAPEAGGSGIPEIEGALEDQRPVRWWRVLPVKFFGGLGTLGGGMVLGREGPTVQIGGNIGRMVLDIFRLKGDEARHTLLATGAAAGLAAAFNAPLAGILFIIEEMRPQFRYTLISIKAVFIGVIMSTIMYRIFNHEVALIDVGKLSDAPLNTLWLYLILGIIFGIFGPIFNKWVLGMQDLLHRVHGGNITKWVLMGGAIGGLCGLLGFVAPATSGGGFNLIPIATAGNFSMGMLVFIFVARVITTLLCFSSGAPGGIFAPMLALGTVLGTAFGMVAVELFPQYHLEAGTFAIAGMGALLAASIRAPLTGIILVLEMTDNYQLILPMIITGLGATLLAQFTGGKPLYSAILARTLAKQEAEQ
notes: CLC-ec1, Cl-/H+ antiporter of Escherichia coli; Homodimer in the crystal (chains A and B); also called trimmed construct; source: E. coli, purified in decylmaltoside (His-tag removed, Superdex 200 gel filtration)
binding result: binds
